Reference: patent US20090162353A1 (MacroGenics, published 2009)

How the values were obtained:
[1] = target: T1, vaccinia virus recombinant B5 protein (vaccinia virus, UniProt Q01227 20-275); assay: surface plasmon resonance; format not stated; target taken from the text
[2] = target: T1, vaccinia virus recombinant B5 protein; assay: ELISA, B5 capture, IgG detect (luminescence) [C]

B1: Ch8AH8AL (antibody, V domains shown)
VH: EVQLVESGGGLIKPGGSLRLSCAASGFIFRDYNINWVRQAPGKGLEWLGFIRTRASGRSTEYSASVKGRFTISRDDSKNIAYLHINSLKMEDTAVYYCAKKGDSYYYMDFWGKGTAVTVSS
VL: ELALTQPASVSGSPGQSITISCTGGRSDLGDSNFVSWYQQYPGKAPKLLIYQVNKRPSGVPDRFSASKSANTASLTISGLQTEDEADYFCSSYTTTSTYVFGIGTKVVVLG
Kd [1]: ≤ 0.6 nM | koff [1]: ≤ 1e-05 s⁻¹ | kon [1]: 20000 M⁻¹ s⁻¹ | EC50 (read off the curve) [2]: ~0.03 µg/mL
